Laboratory results from IntAct's records for PubMed 32017888.

B1: Ras-related protein Rab-8A (Homo sapiens), P61006 (parent)
chain: MAKTYDYLFKLLLIGDSGVGKTCVLFRFSEDAFNSTFISTIGIDFKIRTIELDGKRIKLQIWDTAGQERFRTITTAYYRGAMGIMLVYDITNEKSFDNIRNWIRNIEEHASADVEKMILGNKCDVNDKRQVSKERGEKLALDYGIKFMETSAKANINVENAFFTLARDIKAKMDKKLEGNSPQGSNQGVKITPDQQKRSSFFRCVLL
partner: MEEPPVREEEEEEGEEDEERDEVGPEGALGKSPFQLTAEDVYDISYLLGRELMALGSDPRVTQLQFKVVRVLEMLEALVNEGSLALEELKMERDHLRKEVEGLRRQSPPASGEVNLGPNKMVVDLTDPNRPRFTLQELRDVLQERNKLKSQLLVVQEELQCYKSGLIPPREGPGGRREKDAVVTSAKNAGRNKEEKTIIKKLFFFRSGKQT

Variants of: B1
Settings: with ripl2_human RILPL2, Q969X0

| effect of a mutation on the interaction | Variant |
| --- | --- |
| disrupting interaction strength | T22N |

Variants of: B1
Settings: with ripl2_human RILPL2, Q969X0
Remark: another data set of the same source

| effect of a mutation on the interaction | Variant |
| --- | --- |
| with no effect | K58A |
| disrupting interaction strength | K58Q |
| disrupting interaction strength | K58E |
| disrupting interaction strength | D44K |
| disrupting interaction strength | D44N |
